The record followed here is article PMC6589724, “A geminivirus betasatellite encoded βC1 protein interacts with PsbP and subverts PsbP‐mediated antiviral defence in plants”.

In this data set the target is T1, GST-βC1 (Radish leaf curl betasatellite (RaLCB), UniProt A9XCM1 1-118).
T1 sequence: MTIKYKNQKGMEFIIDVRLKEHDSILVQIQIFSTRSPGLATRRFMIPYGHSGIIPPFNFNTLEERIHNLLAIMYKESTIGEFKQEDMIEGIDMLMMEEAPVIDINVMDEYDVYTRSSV
The experiment in a line: EMSA; 20 mM Tris-HCl pH 8.0, 2 mM DTT, 5 mM MgCl2, 12% glycerol, 25 mM KCl, 2 mM ATP, 10 nM probe, 15 min, room temperature; 3.7% native PAGE. The following applies: protein: recombinant; tags: N-terminal GST (pGEX-6p-2); label: 5'-32P; single strand. Background: A gel shift assay detects complexes by their altered migration in electrophoresis.

Take ACGCTACGCAGCAGCCTTAGCTAC (ssDNA) [SCR probe (1303-1326)]: the binding result is reported as “binds”.
